This is an account of results in paper PMC6393240, “DNA replication initiation in Bacillus subtilis: structural and functional characterization of the essential DnaA–DnaD interaction” (Nucleic Acids Research, 2018).

B6: DnaA domain I (residues 1–81) of Bacillus subtilis DnaA (domain or fragment, UniProt P05648 1-81, looked up)
chain: MENILDLWNQALAQIEKKLSKPSFETWMKSTKAHSLQGDTLTITAPNEFARDWLESRYLHLIADTIYELTGEELSIKFVIP
notes: DnaA, Bacillus subtilis, domain I, residues 1-81; After thrombin cleavage a residual N-terminal Gly-Ser-His leader remains; 15N-labelled (or 13C/15N) where it is the observed partner in NMR, unlabelled in the reverse titration; also called N-terminal domain I of DnaA; DnaA NTD; not shown: His tag, N-terminal, cleaved

Data set [1] concerns the molecule itself. Nature of the data set: cross-linking; BMOE (2 mM) cross-linking of 1.5 μM DnaA(N191C/A198C) with 3 nM 819 bp DNA, 2 mM ATP, 37°C; SDS-PAGE, Coomassie.
Data set [2] concerns the molecule itself. Nature of the data set: FRET or BRET; single-molecule FRET, confocal, room temperature; 1.5 μM DnaA (1:1:2 Cy3B-labelled: Atto647N labelled: un-labelled) with 3 nM 819 bp oriC DNA fragment and 2 mM ATP, 37°C 15 min; measured at ∼100 pM DnaA in imaging buffer.
Data set [3] addresses DnaA(N191C), labelled with Cy3B or Atto647N (Bacillus subtilis) (UniProt P05648).
Data set [4] shares this target. This is another data set of the same source.
Data set [5] addresses B6. Nature of the data set: NMR titration; 1H-15N HSQC, chemical shift perturbations; unlabelled DnaD DDBH2 (129-232 or 129-196) titrated into 15N-labelled DnaA domain I (100 μM) up to 8:1 excess; 50 mM potassium phosphate pH 7.4, 100 mM NaCl; 25°C; KD averaged over five residues. Conditions: both partners purified.
Data set [6] deals with T1, DnaD DDBH2 domain (residues 129–232) of Bacillus subtilis DnaD (Bacillus subtilis, UniProt P39787 129-232).
T1 construct: DnaD, Bacillus subtilis, DDBH2 domain, residues 129-232; A residual N-terminal Gly-Ser-His remains after thrombin cleavage; 15N-labelled in the reverse titration; also called C-terminal DDBH2 domain; not shown: His tag, N-terminal, cleaved
T1 sequence (looked up): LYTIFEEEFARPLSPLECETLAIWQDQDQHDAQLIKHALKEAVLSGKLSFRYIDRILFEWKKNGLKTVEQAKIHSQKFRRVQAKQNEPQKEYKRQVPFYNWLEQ
Described as above. The settings on record: both partners purified.

The target in data set [7] is T1, DnaD DDBH2 domain (residues 129–232) of …. Nature of the data set: NMR titration; reverse titration: unlabelled DnaA domain I titrated into 15N-labelled DnaD DDBH2 (100 μM) up to 8:1 excess; 50 mM potassium phosphate pH 7.4, 100 mM NaCl; 25°C; KD averaged over five residues. Conditions: both partners purified.

B1: DnaA(N191C/A198C) (natural protein, Bacillus subtilis, UniProt P05648 1-446, looked up)
chain: MENILDLWNQALAQIEKKLSKPSFETWMKSTKAHSLQGDTLTITAPNEFARDWLESRYLHLIADTIYELTGEELSIKFVIPQNQDVEDFMPKPQVKKAVKEDTSDFPQNMLNPKYTFDTFVIGSGNRFAHAASLAVAEAPAKAYNPLFIYGGVGLGKTHLMHAIGHYVIDHNPSAKVVYLSSEKFTNEFICSIRDNKCVDFRNRYRNVDVLLIDDIQFLAGKEQTQEEFFHTFNTLHEESKQIVISSDRPPKEIPTLEDRLRSRFEWGLITDITPPDLETRIAILRKKAKAEGLDIPNEVMLYIANQIDSNIRELEGALIRVVAYSSLINKDINADLAAEALKDIIPSSKPKVITIKEIQRVVGQQFNIKLEDFKAKKRTKSVAFPRQIAMYLSREMTDSSLPKIGEEFGGRDHTTVIHAHEKISKLLADDEQLQQHVKEIKEQLK
notes: DnaA, Bacillus subtilis, double cysteine mutant N191C/A198C; also called DnaA(N191C/A198C) mutant protein
Take B1: in data set [1], the binding result is given as “binds”.

B2: DnaA(A198C), labelled with Cy3B or Atto647N (natural protein, Bacillus subtilis, UniProt P05648 1-446, looked up)
chain: MENILDLWNQALAQIEKKLSKPSFETWMKSTKAHSLQGDTLTITAPNEFARDWLESRYLHLIADTIYELTGEELSIKFVIPQNQDVEDFMPKPQVKKAVKEDTSDFPQNMLNPKYTFDTFVIGSGNRFAHAASLAVAEAPAKAYNPLFIYGGVGLGKTHLMHAIGHYVIDHNPSAKVVYLSSEKFTNEFINSIRDNKCVDFRNRYRNVDVLLIDDIQFLAGKEQTQEEFFHTFNTLHEESKQIVISSDRPPKEIPTLEDRLRSRFEWGLITDITPPDLETRIAILRKKAKAEGLDIPNEVMLYIANQIDSNIRELEGALIRVVAYSSLINKDINADLAAEALKDIIPSSKPKVITIKEIQRVVGQQFNIKLEDFKAKKRTKSVAFPRQIAMYLSREMTDSSLPKIGEEFGGRDHTTVIHAHEKISKLLADDEQLQQHVKEIKEQLK
modifications: Cy3B-maleimide or Atto647N-maleimide on the single cysteine A198C (mixed 1:1:2 Cy3B-labelled: Atto647N labelled: un-labelled)
notes: DnaA, Bacillus subtilis, single cysteine mutant A198C; Printed once as DnaA^N198C and once as DnaA^A19C in the methods (misprints)
As for B2, in data set [2], the binding result was “binds”.

B3: DnaD196, truncated DnaD lacking the C-terminal residues 197–232 (domain or fragment)
chain: MKKQQFIDMQEQGTSTIPNLLLTHYKQLGLNETELILLLKIKMHLEKGSYFPTPNQLQEGMSISVEECTNRLRMFIQKGFLFIEECEDQNGIKFEKYSLQPLWGKLYEYIQLAQNQTQERKAEGEQKSLYTIFEEEFARPLSPLECETLAIWQDQDQHDAQLIKHALKEAVLSGKLSFRYIDRILFEWKKNGLKTV
As for B3, in data set [3], the single-molecule FRET of labelled DnaA–DNA filaments: apparent FRET efficiency E* with DnaD196 (24 μM); E* ∼0.7 in its absence worked out at 0.5.

B4: DnaD, full length, Bacillus subtilis (natural protein)
chain: MKKQQFIDMQEQGTSTIPNLLLTHYKQLGLNETELILLLKIKMHLEKGSYFPTPNQLQEGMSISVEECTNRLRMFIQKGFLFIEECEDQNGIKFEKYSLQPLWGKLYEYIQLAQNQTQERKAEGEQKSLYTIFEEEFARPLSPLECETLAIWQDQDQHDAQLIKHALKEAVLSGKLSFRYIDRILFEWKKNGLKTVEQAKIHSQKFRRVQAKQNEPQKEYKRQVPFYNWLEQ
As for B4, in data set [4], the single-molecule FRET of Cy3B/Atto647N-labelled DnaA–DNA filaments: apparent FRET efficiency E* with DnaD (24 μM) added before or after DnaA; E* ∼0.7 without DnaD came to 0.5.

B5: Truncated DnaD DDBH2 domain (residues 129–196) (domain or fragment, Bacillus subtilis, UniProt P39787 129-196, looked up)
chain: LYTIFEEEFARPLSPLECETLAIWQDQDQHDAQLIKHALKEAVLSGKLSFRYIDRILFEWKKNGLKTV
notes: DnaD, Bacillus subtilis, DDBH2 domain truncated at the C-terminus, residues 129-196; Made from the DDBH2 (129-232) construct by Q5 site directed mutagenesis; A residual N-terminal Gly-Ser-His remains after thrombin cleavage; also called DnaD DDBH2 domain truncation; truncated DDBH2; not shown: His tag, N-terminal, cleaved
In the case of B5, in data set [5], the binding result is recorded as “binds”.

Take B6: the Kd (in general, the free concentration of one partner at which half of the binding sites on the other are occupied at equilibrium, for simple one-to-one binding) in data set [6] came out at 768 ± 168 µM; in data set [7], 665 ± 251 µM.
